22 molecules from US20180291110A1 (Hoffmann-La Roche, published 2018) can be followed below.

In the test the target is T1, human transferrin receptor (recombinant, for surface plasmon resonance) (human, UniProt P02786 89-760).
T1 construct: also called huTfR; human transferrin receptor-biotinylated
Put plainly: SPR. For orientation: In SPR one partner is held on a chip, and binding of the other changes the refractive index at the surface.

T1 sequence (P02786 89-760 limits assumed): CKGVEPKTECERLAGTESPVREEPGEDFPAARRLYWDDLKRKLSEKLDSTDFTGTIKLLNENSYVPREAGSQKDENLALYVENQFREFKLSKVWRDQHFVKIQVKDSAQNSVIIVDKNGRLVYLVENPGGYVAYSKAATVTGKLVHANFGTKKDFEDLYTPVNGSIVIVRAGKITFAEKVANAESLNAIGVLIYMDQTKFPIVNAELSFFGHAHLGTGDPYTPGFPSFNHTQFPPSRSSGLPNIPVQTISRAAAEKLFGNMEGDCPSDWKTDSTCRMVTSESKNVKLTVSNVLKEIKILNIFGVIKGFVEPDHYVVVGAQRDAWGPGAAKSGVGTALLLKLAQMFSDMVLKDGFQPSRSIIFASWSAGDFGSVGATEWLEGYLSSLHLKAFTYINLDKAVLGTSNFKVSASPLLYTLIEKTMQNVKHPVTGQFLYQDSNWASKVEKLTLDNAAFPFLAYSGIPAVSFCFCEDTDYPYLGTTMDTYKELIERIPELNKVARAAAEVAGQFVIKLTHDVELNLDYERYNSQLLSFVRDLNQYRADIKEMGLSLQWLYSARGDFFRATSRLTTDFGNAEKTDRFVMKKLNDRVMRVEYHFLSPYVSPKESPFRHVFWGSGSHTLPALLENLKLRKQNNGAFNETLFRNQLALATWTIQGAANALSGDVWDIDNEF

B1: 4/94 SEQ ID NO 199 / murine VL (antibody, V domains shown)
VH: QVQLQESGPGLVKPSETLSLTCTVSGFNIKDTYIHWVIQRPGKGLEWIGRIDPANGDTKSDPSLQSRVTISADTSKNQASLKLSSVTAADTAVYYCVRDYLYPYYFDFWGQGTTVTVSS
VL: KIVMTQSPKSMSMSVGERVTLNCRASESVDTYVSWYQQKPEQSPELLIYGASNRYTGVPDRFTGSGSATDFTLTISSVQAEDLADYYCGQTYNYPLTFGAGTKLELKR
For the molecule B1, the off-rate constant (koff) – broadly, the rate constant with which the complex falls apart – stood at 0.000381 s⁻¹.

B2: 4/94 SEQ ID NO 199 / SEQ ID NO 201 (antibody, V domains shown)
VH: QVQLQESGPGLVKPSETLSLTCTVSGFNIKDTYIHWVIQRPGKGLEWIGRIDPANGDTKSDPSLQSRVTISADTSKNQASLKLSSVTAADTAVYYCVRDYLYPYYFDFWGQGTTVTVSS
VL: KIQMTQSPSSLSASVGDRVTITCRASESVDTYVSWYQQKPGKAPKLLIYGASNRYTGVPSRFSGSGSGTDFTLTISSLQPEDFADYYCGQTYNYPLTFGQGTKLEI
Turning to B2, the koff was determined as 0.000486 s⁻¹.

B3: 4/94 SEQ ID NO 200 / murine VL (antibody, V domains shown)
VH: EVQLVESGGGLVQPGGSLRLSCAASGFNIKDTYIHWVIQAPGKGLEWVGRIDPANGDTKSDPSVQVRATISADTSKNTAYLQMNSLRAEDTAVYYCVRDYLYPYYFDFWGQGTTVTVSS
VL: KIVMTQSPKSMSMSVGERVTLNCRASESVDTYVSWYQQKPEQSPELLIYGASNRYTGVPDRFTGSGSATDFTLTISSVQAEDLADYYCGQTYNYPLTFGAGTKLELKR
B3: the off-rate (koff) came to 0.000232 s⁻¹.

B4: 4/94 SEQ ID NO 194 / SEQ ID NO 209 (antibody, V domains shown)
VH: QVQLVQSGAEVKKPGASVKVSCKASGFNIKDTYIHWVIQAPGQGLEWMGRIDPANGDTKSDPKFQVRVTITADTSTSTVYMELSSLRSEDTAVYYCVRDYLYPYYFDFWGQGTTVTVSS
VL: KIVLTQSPGTLSLSPGERATLSCRASESVDTYVSWYQQKPGQAPRLLIYGASNRYTGIPDRFSGSGSGTDFTLTISRLEPEDFADYYCGQTYNYPLTFGQGTKLEI
As for B4, the koff turned out to be 0.000448 s⁻¹.

B5: 4/94 SEQ ID NO 199 / SEQ ID NO 207 (antibody, V domains shown)
VH: QVQLQESGPGLVKPSETLSLTCTVSGFNIKDTYIHWVIQRPGKGLEWIGRIDPANGDTKSDPSLQSRVTISADTSKNQASLKLSSVTAADTAVYYCVRDYLYPYYFDFWGQGTTVTVSS
VL: KIVLTQSPGTLSLSPGERATLSCRASESVDTYVSWYQQKPGQAPRLLIYGASNRYTGVPDRFSGSGSGTDFTLTISRLEPEDFADYYCGQTYNYPLTFGQGTKLEI
Take B5: the off-rate (koff) came to 0.000527 s⁻¹.

B6: 4/94 SEQ ID NO 200 / SEQ ID NO 207 (antibody, V domains shown)
VH: EVQLVESGGGLVQPGGSLRLSCAASGFNIKDTYIHWVIQAPGKGLEWVGRIDPANGDTKSDPSVQVRATISADTSKNTAYLQMNSLRAEDTAVYYCVRDYLYPYYFDFWGQGTTVTVSS
VL: KIVLTQSPGTLSLSPGERATLSCRASESVDTYVSWYQQKPGQAPRLLIYGASNRYTGVPDRFSGSGSGTDFTLTISRLEPEDFADYYCGQTYNYPLTFGQGTKLEI
As for B6, the koff turned out to be 0.000299 s⁻¹.

B7: 4/94 SEQ ID NO 197 / SEQ ID NO 207 (antibody, V domains shown)
VH: QVQLVQSGAEVKKPGSSVKVSCKASGFNIKDTYIHWVIQAPGQGLEWMGRIDPANGDTKSDPKFQGRVTITADESTSTAYMELSSLRSEDTAVYYCVRDYLYPYYFDFWGQGTTVTVSS
VL: KIVLTQSPGTLSLSPGERATLSCRASESVDTYVSWYQQKPGQAPRLLIYGASNRYTGVPDRFSGSGSGTDFTLTISRLEPEDFADYYCGQTYNYPLTFGQGTKLEI
Consider B7, for which the koff amounted to 0.000703 s⁻¹.

B8: 4/94 SEQ ID NO 195 / SEQ ID NO 207 (antibody, V domains shown)
VH: QVQLVQSGAEVKKPGASVKVSCKASGFNIKDTYIHWVIQAPGQGLEWMGRIDPANGDTKSAPKFQVRVTITADTSTSTVYMELSSLRSEDTAVYYCVRDYLYPYYFDFWGQGTTVTVSS
VL: KIVLTQSPGTLSLSPGERATLSCRASESVDTYVSWYQQKPGQAPRLLIYGASNRYTGVPDRFSGSGSGTDFTLTISRLEPEDFADYYCGQTYNYPLTFGQGTKLEI
As for B8, the off-rate (koff) was found to be 0.000426 s⁻¹.

B9: 4/94 SEQ ID NO 200 / SEQ ID NO 208 (antibody, V domains shown)
VH: EVQLVESGGGLVQPGGSLRLSCAASGFNIKDTYIHWVIQAPGKGLEWVGRIDPANGDTKSDPSVQVRATISADTSKNTAYLQMNSLRAEDTAVYYCVRDYLYPYYFDFWGQGTTVTVSS
VL: EIVLTQSPGTLSLSPGERATLSCRASESVDTYVSWYQQKPGQAPRLLIYGASNRYTGVPDRFSGSGSGTDFTLTISRLEPEDFADYYCGQTYNYPLTFGQGTKLEI
On to B9, for which the koff came out at 0.000306 s⁻¹.

B10: 4/94 SEQ ID NO 198 / SEQ ID NO 209 (antibody, V domains shown)
VH: QVQLVQSGAEVKKPGSSVKVSCKASGFNIKDTYIHWVIQRPGQGLEWMGRIDPANGDTKSDPKFQGRVTITADESTSTAYMELSSLRSEDTAVYYCVRDYLYPYYFDFWGQGTTVTVSS
VL: KIVLTQSPGTLSLSPGERATLSCRASESVDTYVSWYQQKPGQAPRLLIYGASNRYTGIPDRFSGSGSGTDFTLTISRLEPEDFADYYCGQTYNYPLTFGQGTKLEI
On to B10, for which the koff stood at 0.000728 s⁻¹.

B11: 4/94 SEQ ID NO 197 / SEQ ID NO 208 (antibody, V domains shown)
VH: QVQLVQSGAEVKKPGSSVKVSCKASGFNIKDTYIHWVIQAPGQGLEWMGRIDPANGDTKSDPKFQGRVTITADESTSTAYMELSSLRSEDTAVYYCVRDYLYPYYFDFWGQGTTVTVSS
VL: EIVLTQSPGTLSLSPGERATLSCRASESVDTYVSWYQQKPGQAPRLLIYGASNRYTGVPDRFSGSGSGTDFTLTISRLEPEDFADYYCGQTYNYPLTFGQGTKLEI
On to B11, for which the koff was found to be 0.000683 s⁻¹.

B12: 4/94 SEQ ID NO 196 / SEQ ID NO 209 (antibody, V domains shown)
VH: QVQLVQSGAEVKKPGASVKVSCKASGFNIKDTYIHWVIQAPGQGLEWMGRIDPANGDTKSDPKFQGRVTITADTSTSTVYMELSSLRSEDTAVYYCVRDYLYPYYFDFWGQGTTVTVSS
VL: KIVLTQSPGTLSLSPGERATLSCRASESVDTYVSWYQQKPGQAPRLLIYGASNRYTGIPDRFSGSGSGTDFTLTISRLEPEDFADYYCGQTYNYPLTFGQGTKLEI
On to B12, for which the off-rate (koff) amounted to 0.000452 s⁻¹.

B13: 4/94 SEQ ID NO 199 / SEQ ID NO 208 (antibody, V domains shown)
VH: QVQLQESGPGLVKPSETLSLTCTVSGFNIKDTYIHWVIQRPGKGLEWIGRIDPANGDTKSDPSLQSRVTISADTSKNQASLKLSSVTAADTAVYYCVRDYLYPYYFDFWGQGTTVTVSS
VL: EIVLTQSPGTLSLSPGERATLSCRASESVDTYVSWYQQKPGQAPRLLIYGASNRYTGVPDRFSGSGSGTDFTLTISRLEPEDFADYYCGQTYNYPLTFGQGTKLEI
Consider B13, for which the koff came to 0.00055 s⁻¹.

B14: 4/94 SEQ ID NO 197 / SEQ ID NO 209 (antibody, V domains shown)
VH: QVQLVQSGAEVKKPGSSVKVSCKASGFNIKDTYIHWVIQAPGQGLEWMGRIDPANGDTKSDPKFQGRVTITADESTSTAYMELSSLRSEDTAVYYCVRDYLYPYYFDFWGQGTTVTVSS
VL: KIVLTQSPGTLSLSPGERATLSCRASESVDTYVSWYQQKPGQAPRLLIYGASNRYTGIPDRFSGSGSGTDFTLTISRLEPEDFADYYCGQTYNYPLTFGQGTKLEI
In the case of B14, the dissociation rate constant (koff) was found to be 0.000705 s⁻¹.

B15: 4/94 SEQ ID NO 200 / SEQ ID NO 209 (antibody, V domains shown)
VH: EVQLVESGGGLVQPGGSLRLSCAASGFNIKDTYIHWVIQAPGKGLEWVGRIDPANGDTKSDPSVQVRATISADTSKNTAYLQMNSLRAEDTAVYYCVRDYLYPYYFDFWGQGTTVTVSS
VL: KIVLTQSPGTLSLSPGERATLSCRASESVDTYVSWYQQKPGQAPRLLIYGASNRYTGIPDRFSGSGSGTDFTLTISRLEPEDFADYYCGQTYNYPLTFGQGTKLEI
For the molecule B15, the koff came to 0.000326 s⁻¹.

B16: 4/94 SEQ ID NO 195 / SEQ ID NO 209 (antibody, V domains shown)
VH: QVQLVQSGAEVKKPGASVKVSCKASGFNIKDTYIHWVIQAPGQGLEWMGRIDPANGDTKSAPKFQVRVTITADTSTSTVYMELSSLRSEDTAVYYCVRDYLYPYYFDFWGQGTTVTVSS
VL: KIVLTQSPGTLSLSPGERATLSCRASESVDTYVSWYQQKPGQAPRLLIYGASNRYTGIPDRFSGSGSGTDFTLTISRLEPEDFADYYCGQTYNYPLTFGQGTKLEI
Consider B16, for which the koff was determined as 0.000438 s⁻¹.

B17: 4/94 SEQ ID NO 199 / SEQ ID NO 209 (antibody, V domains shown)
VH: QVQLQESGPGLVKPSETLSLTCTVSGFNIKDTYIHWVIQRPGKGLEWIGRIDPANGDTKSDPSLQSRVTISADTSKNQASLKLSSVTAADTAVYYCVRDYLYPYYFDFWGQGTTVTVSS
VL: KIVLTQSPGTLSLSPGERATLSCRASESVDTYVSWYQQKPGQAPRLLIYGASNRYTGIPDRFSGSGSGTDFTLTISRLEPEDFADYYCGQTYNYPLTFGQGTKLEI
On to B17, for which the dissociation rate constant (koff) came out at 0.000552 s⁻¹.

B18: 4/94 SEQ ID NO 198 / SEQ ID NO 208 (antibody, V domains shown)
VH: QVQLVQSGAEVKKPGSSVKVSCKASGFNIKDTYIHWVIQRPGQGLEWMGRIDPANGDTKSDPKFQGRVTITADESTSTAYMELSSLRSEDTAVYYCVRDYLYPYYFDFWGQGTTVTVSS
VL: EIVLTQSPGTLSLSPGERATLSCRASESVDTYVSWYQQKPGQAPRLLIYGASNRYTGVPDRFSGSGSGTDFTLTISRLEPEDFADYYCGQTYNYPLTFGQGTKLEI
Turning to B18, the koff came out at 0.000717 s⁻¹.

B19: 4/94 SEQ ID NO 198 / SEQ ID NO 207 (antibody, V domains shown)
VH: QVQLVQSGAEVKKPGSSVKVSCKASGFNIKDTYIHWVIQRPGQGLEWMGRIDPANGDTKSDPKFQGRVTITADESTSTAYMELSSLRSEDTAVYYCVRDYLYPYYFDFWGQGTTVTVSS
VL: KIVLTQSPGTLSLSPGERATLSCRASESVDTYVSWYQQKPGQAPRLLIYGASNRYTGVPDRFSGSGSGTDFTLTISRLEPEDFADYYCGQTYNYPLTFGQGTKLEI
B19: the off-rate constant (koff) turned out to be 0.000717 s⁻¹.

B20: 4/94 SEQ ID NO 195 / SEQ ID NO 208 (antibody, V domains shown)
VH: QVQLVQSGAEVKKPGASVKVSCKASGFNIKDTYIHWVIQAPGQGLEWMGRIDPANGDTKSAPKFQVRVTITADTSTSTVYMELSSLRSEDTAVYYCVRDYLYPYYFDFWGQGTTVTVSS
VL: EIVLTQSPGTLSLSPGERATLSCRASESVDTYVSWYQQKPGQAPRLLIYGASNRYTGVPDRFSGSGSGTDFTLTISRLEPEDFADYYCGQTYNYPLTFGQGTKLEI
In the case of B20, the koff amounted to 0.000415 s⁻¹.

B21: 4/94 SEQ ID NO 196 / SEQ ID NO 208 (antibody, V domains shown)
VH: QVQLVQSGAEVKKPGASVKVSCKASGFNIKDTYIHWVIQAPGQGLEWMGRIDPANGDTKSDPKFQGRVTITADTSTSTVYMELSSLRSEDTAVYYCVRDYLYPYYFDFWGQGTTVTVSS
VL: EIVLTQSPGTLSLSPGERATLSCRASESVDTYVSWYQQKPGQAPRLLIYGASNRYTGVPDRFSGSGSGTDFTLTISRLEPEDFADYYCGQTYNYPLTFGQGTKLEI
For B21, the off-rate constant (koff) came to 0.000434 s⁻¹.

B22: 4/94 SEQ ID NO 200 / SEQ ID NO 201 (antibody, V domains shown)
VH: EVQLVESGGGLVQPGGSLRLSCAASGFNIKDTYIHWVIQAPGKGLEWVGRIDPANGDTKSDPSVQVRATISADTSKNTAYLQMNSLRAEDTAVYYCVRDYLYPYYFDFWGQGTTVTVSS
VL: KIQMTQSPSSLSASVGDRVTITCRASESVDTYVSWYQQKPGKAPKLLIYGASNRYTGVPSRFSGSGSGTDFTLTISSLQPEDFADYYCGQTYNYPLTFGQGTKLEI
Take B22: the koff came to 0.000274 s⁻¹.
